According to patent US7700101B2, “Reagents and method for modulating Dkk-mediated interactions” (Wyeth, priority 2001, dated 2010):

B1: Wnt5a: murine Wnt5a cDNA clone, RNA injected (protein, UniProt P22725 62-380, looked up)
Protein Wnt-5a: IIGAQPLCSQLAGLSQGQKKLCHLYQDHMQYIGEGAKTGIKECQYQFRHRRWNCSTVDNTSVFGRVMQIGSRETAFTYAVSAAGVVNAMSRACREGELSTCGCSRAARPKDLPRDWLWGGCGDNIDYGYRFAKEFVDARERERIHAKGSYESARILMNLHNNEAGRRTVYNLADVACKCHGVSGSCSLKTCWLQLADFRKVGDALKEKYDSAAAMRLNSRGKLVQVNSRFNSPTTQDLVYIDPSPDYCVRNESTGSLGTQGRLCNKTSEGMDGCELMCCGRGYDQFKTVQTERCHCKFHWCCYVKCKKCTEIVDQFVCK
B2: D11: Dkk-1 fragment clone F3/R2: Val 139-Cys245 (protein)
chain: VSSDQNHFRGEIEETITESFGNDHSTLDGYSRRTTLSSKMYHTKGQEGSVCLRSSDCASGLCCARHFWSKICKPVLKEGQVCTKHRRKGSHGLEIFQRCYCGEGLSC
modifications: left off: large carriers

Legend:
Wnt pathway = assay: Xenopus embryo screening for duplicated body axis; format: in vivo; conditions: RNA injected into ventral blastomere; LRP5 500 pg, Wnt5a 20 pg
Source text: Modification of the Wnt signaling pathway can be visualized by examining the embryos for a dorsalization phenotype (duplicated body axis) after RNA injection into the ventral blastomere at the 4- or 8-cell stage. On the molecular level, phenotypes can be analyzed by looking for expression of various marker genes in stage 10.5 embryos. Such markers would include general endoderm, mesoderm, and ectoderm markers as well as a variety of tissue-specific transcripts.
mRNA for microinjection into Xenopus embryos is generated by in vitro transcription using the CDNA constructs in the pCS2^+ vector described above as template. RNA is synthesized using the Ambion mMessage mMachine high yield capped RNA transcription kit (Cat. #1340) following the manufacturer's specifications for the Sp6 polymerase reactions. RNA products were brought up to a final volume of 50 μl in sterile, glass-distilled water and purified over Quick Spin-Columns for Radiolabelled RNA Purification G50-Sephadex (Roche, Cat. #1274015) following the manufacturer's specifications. The resulting eluate was finally extracted with phenol:chloroform:isoamyl alcohol and isopropanol precipitated using standard protocols (Sambrook et al., 1989). Final RNA volumes were approximately 50 μl. RNA concentration was determined by absorbance values at 260 nm and 280 nm. […]

[1] = test system: Zmax1/LRP5 ligand binding domain (LBD) baits LBD1 and LBD4; assay: Yeast two hybrid minimum interaction domain mapping of Dkk-1 with LRP5; conditions: FIG. 6
Source text: Further analysis of yeast two hybrid (Y2H) interacting proteins includes the dissection of protein motifs responsible for the interaction. Sequence alignment of multiple clones identified in the Y2H screens can help identify the smallest common region responsible for the interaction. In the absence of appropriate clones, deletion mapping of interacting domains is necessary.
PCR primers containing restriction sites suitable for cloning are designed to cover multiple sub-domains of the protein of interest (bait or prey). The methods involved in cloning, sequencing, yeast transformation, mating, and scoring of interactions are readily performed by one of ordinary skill in the art of molecular biology and genetic engineering.
The primers, which are presented in 5′ to 3′ orientation, were as follows: […]
PCR was performed using PfuTurbo® polymerase (Stratagene). The PCR products were gel purified, digested with SaflI/NotI and ligated to pPC86 (Gibco/BRL) which had been linearized with SalI/NotI.
These clones were transformed into yeast and mated with each of three yeast strains containing pDBleu (Gibco/BRL), pDBleuLBD1, and pDBleuLBD4. Positive interactions were detected by growth of the hybrids on appropriate selective media.

Sequence of Zmax1/LRP5 ligand binding domain (LBD) baits LBD1 and LBD4 (as listed by the source): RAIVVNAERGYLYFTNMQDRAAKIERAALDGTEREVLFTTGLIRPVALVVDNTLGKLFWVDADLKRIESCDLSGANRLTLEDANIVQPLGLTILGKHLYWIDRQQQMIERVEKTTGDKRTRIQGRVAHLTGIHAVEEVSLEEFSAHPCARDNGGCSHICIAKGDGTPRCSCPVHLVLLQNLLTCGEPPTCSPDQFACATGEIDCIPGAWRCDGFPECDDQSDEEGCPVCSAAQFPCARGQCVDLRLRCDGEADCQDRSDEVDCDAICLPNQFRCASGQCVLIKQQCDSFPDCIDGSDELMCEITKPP

Molecule	induction of axis duplication (Wnt pathway)	growth of diploids on selective media (interaction with LRP5 LBD baits) [1]
B1	could not induce axis duplication	–
B2	–	no growth was observed
